Results published in the Human Domainome abundance scans (Beltran et al. 2025).
± gives the uncertainty stated by the source.

B1: Zinc finger homeobox protein 3, residues 2244 to 2299; numbered along this chain, Q15911 (parent)
chain: SSRTRFTDYQLRVLQDFFDANAYPKDDEFEQLSNLLNLPTRVIVVWFQNARQKARK
B2: Bromodomain adjacent to zinc finger domain protein 2B, residues 1927 to 1982; numbered along this chain, Q9UIF8 (parent)
chain: KSIMKVYCQICRKGDNEELLLLCDGCDKGCHTYCHRPKITTIPDGDWFCPACIAKA

Variants of: B1
Experiment: abundance fitness (aPCA) (normalised: wild type 0, dead -1); higher = more abundant; growth selection in yeast, the domain comes from the species named
Conditions: Homo sapiens

With SSRTRFADYQLRVLQDFFDANAYPKDDEFEQLSNLLNLPTRVIVVWFQNARQKARK as the variant, how does the abundance fitness read?
Its abundance fitness is -0.289 ± 0.089.

For SSRTRFTDYQLRVLQDFFDANAYPKDDEFEQLSNLLNLPTRVIVVWFQNARQKARY, which abundance fitness is on record?
Its abundance fitness is -0.158 ± 0.16.

For SSRTRFTDYQLRVLQDFWDANAYPKDDEFEQLSNLLNLPTRVIVVWFQNARQKARK, which abundance fitness is on record?
The abundance fitness was -0.424 ± 0.13.

With SSRTRFTDYQLRVLQDFFDANAYPKDDEFEQLSNLLNLPTCVIVVWFQNARQKARK as the variant, how does the abundance fitness read?
The abundance fitness was -0.002 ± 0.1.

For SSRTRFTDYQLRVLQDFFDANAYPIDDEFEQLSNLLNLPTRVIVVWFQNARQKARK, which abundance fitness is on record?
The abundance fitness was -0.226 ± 0.19.

Which abundance fitness does the source give for SSRTRFTDYQLRVLQDFFDANAYPKDDEFEQLSNELNLPTRVIVVWFQNARQKARK here?
Its abundance fitness is -0.107 ± 0.13.

For SSRTRFTQYQLRVLQDFFDANAYPKDDEFEQLSNLLNLPTRVIVVWFQNARQKARK, which abundance fitness is on record?
The abundance fitness was -0.035 ± 0.17.

Which abundance fitness does the source give for SSRTRFTDYQLRVLQDFFDANAYPKDEEFEQLSNLLNLPTRVIVVWFQNARQKARK here?
Its abundance fitness is -0.084 ± 0.085.

Which abundance fitness does the source give for SSRTRFTDYQLRVLQDFFDANAYPKDDEFEQLSNLLNLPTRVIVVWFQNARQEARK here?
Its abundance fitness is 0.162 ± 0.16.

Which abundance fitness does the source give for SSRTRFTDYQLRVLQDFFDANAYPKDDEFEQLSNLLNLPTPVIVVWFQNARQKARK here?
The abundance fitness was -0.046 ± 0.09.

Which abundance fitness does the source give for SSRTRFTDYQLRVLQDFFDANATPKDDEFEQLSNLLNLPTRVIVVWFQNARQKARK here?
Its abundance fitness is -0.043 ± 0.093.

Which abundance fitness does the source give for SSRTRFTDYQLRVLQDFFDANAYPKDDEFEQLSNLLNLPTRVIVVWFQNAHQKARK here?
The abundance fitness was -0.382 ± 0.41.

With SSRTRFTDYQLRVLQDFFDANAYPKDDEFENLSNLLNLPTRVIVVWFQNARQKARK as the variant, how does the abundance fitness read?
The abundance fitness was 0.366 ± 0.27.

For FSRTRFTDYQLRVLQDFFDANAYPKDDEFEQLSNLLNLPTRVIVVWFQNARQKARK, which abundance fitness is on record?
Its abundance fitness is -0.357 ± 0.41.

With SSRTRFTDYQLRVLQDFFDANAYPKDDEFEQLSNLLNLPTRVIVVWFQVARQKARK as the variant, how does the abundance fitness read?
Its abundance fitness is -0.362 ± 0.11.

Which abundance fitness does the source give for SSRTRFTDYQLRVLQDFFDENAYPKDDEFEQLSNLLNLPTRVIVVWFQNARQKARK here?
Its abundance fitness is -0.115 ± 0.13.

Which abundance fitness does the source give for SSRTRFTDYQLRVLQDFFDANAYPKDFEFEQLSNLLNLPTRVIVVWFQNARQKARK here?
The abundance fitness was -0.233 ± 0.15.

Which abundance fitness does the source give for SSRTRFTDYQLRVLQDFFDANAYPKDDEFEQLSNLLNLPTRVIKVWFQNARQKARK here?
Its abundance fitness is -0.071 ± 0.16.

With SSRTRFTDYQLRVLQDFFDANAYPKDDEFEQLSELLNLPTRVIVVWFQNARQKARK as the variant, how does the abundance fitness read?
The abundance fitness was 0.118 ± 0.14.

For SSRTRFTDYQTRVLQDFFDANAYPKDDEFEQLSNLLNLPTRVIVVWFQNARQKARK, which abundance fitness is on record?
The abundance fitness was 0.172 ± 0.15.

Which abundance fitness does the source give for SSRTRFTDYQLRVLQDFFDANAFPKDDEFEQLSNLLNLPTRVIVVWFQNARQKARK here?
Its abundance fitness is 0.122 ± 0.14.

For SSRTRFTDYQLRVLQDFFDANAYPKDREFEQLSNLLNLPTRVIVVWFQNARQKARK, which abundance fitness is on record?
Its abundance fitness is -0.147 ± 0.071.

With SSRTRFTDYQLRVLQDFFDANAYPDDDEFEQLSNLLNLPTRVIVVWFQNARQKARK as the variant, how does the abundance fitness read?
The abundance fitness was -0.466 ± 0.15.

With SSRTRFIDYQLRVLQDFFDANAYPKDDEFEQLSNLLNLPTRVIVVWFQNARQKARK as the variant, how does the abundance fitness read?
Its abundance fitness is -0.586 ± 0.19.

For SSRTRFTDYQLRVLQDFFDANAYFKDDEFEQLSNLLNLPTRVIVVWFQNARQKARK, which abundance fitness is on record?
Its abundance fitness is -0.533 ± 0.37.

With SSRTRFTDYQLRVLQDFFDANAYPKDDEFEQLSNLLNLPTRTIVVWFQNARQKARK as the variant, how does the abundance fitness read?
The abundance fitness was 0.186 ± 0.15.

With SSRTRFTDYQLRVLQDFFDACAYPKDDEFEQLSNLLNLPTRVIVVWFQNARQKARK as the variant, how does the abundance fitness read?
The abundance fitness was -0.232 ± 0.16.

For SSRTRFTDYQLRVLQDFFDANAYPKDDIFEQLSNLLNLPTRVIVVWFQNARQKARK, which abundance fitness is on record?
The abundance fitness was -0.374 ± 0.2.

With SSRVRFTDYQLRVLQDFFDANAYPKDDEFEQLSNLLNLPTRVIVVWFQNARQKARK as the variant, how does the abundance fitness read?
The abundance fitness was -0.634 ± 0.098.

Which abundance fitness does the source give for SSRTRFTDYQLPVLQDFFDANAYPKDDEFEQLSNLLNLPTRVIVVWFQNARQKARK here?
The abundance fitness was -0.794 ± 0.088.

Which abundance fitness does the source give for SSRTRFTDYQLRVLQDFFDANAYPKIDEFEQLSNLLNLPTRVIVVWFQNARQKARK here?
Its abundance fitness is 0.038 ± 0.21.

With SSRTRFTDYGLRVLQDFFDANAYPKDDEFEQLSNLLNLPTRVIVVWFQNARQKARK as the variant, how does the abundance fitness read?
The abundance fitness was -0.863 ± 0.08.

With SSRTRFTDYQLMVLQDFFDANAYPKDDEFEQLSNLLNLPTRVIVVWFQNARQKARK as the variant, how does the abundance fitness read?
Its abundance fitness is -0.378 ± 0.12.

With SSRTRFTDYQLRVLQDFFDANAYPKDDEFEQLSNLLNLPTNVIVVWFQNARQKARK as the variant, how does the abundance fitness read?
Its abundance fitness is 0.195 ± 0.093.

Which abundance fitness does the source give for SSRTRFTDYQLRVLQDFFDAMAYPKDDEFEQLSNLLNLPTRVIVVWFQNARQKARK here?
The abundance fitness was -0.394 ± 0.13.

Which abundance fitness does the source give for SSRTRFTDYQLRVLQDFFDANAYPKDDEFEQLSNLLNLPTRVIVVWFQNGRQKARK here?
Its abundance fitness is -0.298 ± 0.081.

With RSRTRFTDYQLRVLQDFFDANAYPKDDEFEQLSNLLNLPTRVIVVWFQNARQKARK as the variant, how does the abundance fitness read?
The abundance fitness was -0.097 ± 0.38.

Which abundance fitness does the source give for SSRTRFTDYQLRVLQDFFDANAYPKDDEFEQLSNLLNLPTRVIVSWFQNARQKARK here?
Its abundance fitness is 0.008 ± 0.074.

With SSRTRFTDYQLRVLQDFFDANAYPKDDEFEQLSNLLNDPTRVIVVWFQNARQKARK as the variant, how does the abundance fitness read?
The abundance fitness was -1.07 ± 0.35.

For SSRTRFTDYQLRVLQDFFDANAYPKDDEFEQLSNYLNLPTRVIVVWFQNARQKARK, which abundance fitness is on record?
Its abundance fitness is -0.129 ± 0.16.

With SSRTRFTDYQLRLLQDFFDANAYPKDDEFEQLSNLLNLPTRVIVVWFQNARQKARK as the variant, how does the abundance fitness read?
Its abundance fitness is -0.093 ± 0.073.

With SSRTRFTDHQLRVLQDFFDANAYPKDDEFEQLSNLLNLPTRVIVVWFQNARQKARK as the variant, how does the abundance fitness read?
Its abundance fitness is -0.129 ± 0.27.

With SSRTRFTDYELRVLQDFFDANAYPKDDEFEQLSNLLNLPTRVIVVWFQNARQKARK as the variant, how does the abundance fitness read?
The abundance fitness was -0.59 ± 0.12.

Variants of: B2
Experiment: as above
Conditions: Homo sapiens

For ASIMKVYCQICRKGDNEELLLLCDGCDKGCHTYCHRPKITTIPDGDWFCPACIAKA, which abundance fitness is on record?
Its abundance fitness is -0.398 ± 0.35.

With CSIMKVYCQICRKGDNEELLLLCDGCDKGCHTYCHRPKITTIPDGDWFCPACIAKA as the variant, how does the abundance fitness read?
Its abundance fitness is -0.279 ± 0.19.

Which abundance fitness does the source give for DSIMKVYCQICRKGDNEELLLLCDGCDKGCHTYCHRPKITTIPDGDWFCPACIAKA here?
Its abundance fitness is -0.199 ± 0.2.

With ESIMKVYCQICRKGDNEELLLLCDGCDKGCHTYCHRPKITTIPDGDWFCPACIAKA as the variant, how does the abundance fitness read?
The abundance fitness was -0.035 ± 0.12.
